Reference: US7919292B2, “Producing hydrogen by heterologous expression of a type II NAD (P)H dehydrogenase in Chlamydomonas” (Commissariat a l'Energie Atomique, priority 2004, dated 2011)
Like-named read-outs stand apart in the source and are kept apart here.

Legend:
[1] = biological target: Agrobacterium tumefaciens NDH-II (Agrobacterium fabrum (Agrobacterium tumefaciens), UniProt Q7CY19); test: biochemical
Method: The activity of the Agrobacterium tumefaciens NDH-II was assayed using membranes from an E. coli strain deficient in NDH-I and NDH-II (ndh::tet; nuoB::nptl).
The cells were then collected by centrifugation (15 min, 3200×g) and washed twice with 10 ml of solution containing 200 mM Tris-Cl, pH 8, 2.5 mM EDTA and 0.2 mM PMSF. They were then ruptured by passing them twice through a French press at the pressure of 16 000 psi.
The membrane fraction was recovered by centrifugation (30 min, 48 500×g) and resuspended in 200 μl of analysis buffer (50 mM of phosphate buffer, pH 7.5, and 150 mM NaCl).
The O2 consumption of the E. coli ANN0222 membranes was measured by means of a Clark electrode (DW2/2, Hansatech, King's Lynn, England). After addition of the purified enzyme, this method made it possible to determine its specific activity. […]
In order to measure only the membrane-linked respiratory oxidase activity, catalase (1000 U/ml) and superoxide dismutase (SOD) (500 U/ml) were added to the reaction mixture. […] The inhibition kinetics were determined in the presence of 200 μM of NADH or of 2 mM of NADPH.

[2] = system: E. coli ANN0222 membranes; test: Enzymatic activity of purified NDH-II on bacterial membranes (O2 consumption, Clark electrode); type: biochemical; conditions: 25° C.; for Km: physiological pH
Method: In the next experiment, the capacity of this enzyme to transport electrons to the respiratory chain of E. coli was determined.

[3] = system: Chlamydomonas thylakoids; test: Photo-induced DNP-INT-sensitive oxygen uptake of Chlamydomonas thylakoids (electron transport from NAD(P)H to the photosynthetic chain); type: biochemical, Chlamydomonas reinhardtii
Method: (§1) A culture of 200 ml of Chlamydomonas reinhardtii (wild-type 137c) was sampled in the exponential growth phase (approximately 5×10^6 cells·ml^−1), and then centrifuged (5 min, 1000×g). The cells were washed in 35 mM HEPES-NaOH buffer (pH 7.2), resuspended in 10 ml of lysis buffer (50 mM tricine-NaOH, pH 8, 10 mM NaCl, 5 mM MgCl2, 1% BSA, 1 mM benzamidine and 1 mM PMSF) and stored in the cold and in the dark for the following steps.
The suspension was passed through a French press twice, at 2000 psi. The lysate was first centrifuged (5 min, 4° C., 500×g) in order to remove the unlysed cells, and the thylakoid membranes were then pelleted at 10 000×g for 10 min and resuspended in 250 to 500 μl of analysis buffer (50 mM tricine-NaOH, pH 7.2, 10 mM NaCl and 5 mM MgCl2).
In order to quantify this effect of the Agrobacterium NDH-II on the electron flow from NAD(P)H to the acceptors of PSI, oxygen consumption measurements were carried out in the presence of methyl viologen (an acceptor of PSI), of DCMU (an inhibitor of PSII) and of an NADH (200 μM) or NADPH (2 mM) electron donor.
The Chlamydomonas thylakoids (50 μl, corresponding to 85 μg·ml^−1 of chlorophyll) are placed in a Clark electrode containing 900 μl of analysis buffer (50 mM tricine-NaOH, pH 7.2, 10 mM NaCl and 5 mM MgCl2, 25 μM DCMU, 50 μM methyl viologen, SOD (500 U·ml^−1), catalase (1000 U·ml^−1), 4 μM of myxothiazol and 800 μM of SHAM (salicylhydroxamic acid). The latter two compounds are added in order to inhibit respiratory O2 uptake.
Under these conditions, the fraction of the photo-induced oxygen uptake sensitive to DNP-INT (2-iodo-6-isopropyl-3-methyl-2′,4,4′-trinitrodiphenyl ether; 10 μM), an inhibitor of cytochrome b6f, is proportional to the electron transport between the NAD(P)H and the photosynthetic chain.

[4] = system: Chlamydomonas reinhardtii plastoquinones; test: Plastoquinone reduction measured by chlorophyll fluorescence on thylakoid membranes; type: biochemical; conditions: NDH-II 1.5 μg·ml^−1, 200 μM NADH, anaerobic
Method: The plastoquinone-reducing activity by the Agrobacterium NDH-II was analyzed by measuring chlorophyll fluorescence. In the presence of a weak nonactinic illumination, the measurement of chlorophyll fluorescence provides an indication of the plastoquinone redox state.
as §1
The suspension was passed through a French press twice, at 2000 psi. […]
The photosystem II fluorescence was measured using a modulated light fluorimeter (PAM 101-103, Walz, Effeltrich, Germany).
A nonactinic modulated light (650 nm, 1.6 kHz) was used to determine the level of chlorophyll fluorescence F0. The maximum level of the chlorophyll fluorescence Fm was measured under a saturating flash of 1 second (approximately 1000 μmol photons·m^−2·s^−1). […]

[5] = system: E. coli ANN0222 membranes; test: Membrane NADH dehydrogenase activity of E. coli ANN0222 expressing Agtundh2 (O2 uptake); type: biochemical
Method: Two batches of E. coli ANN.0222 membrane fractions were prepared, from a culture of the control strain on LB medium and from a culture of the strain having incorporated the plasmid pSDN2Ag6H, cultured on LB medium in the presence of 0.1 mM IPTG. The cultures were carried out until an optical density of 1 at 600 nm was obtained. […] The cells were then ruptured by passing them through a French press twice, at 16 000 psi. The membrane fraction, collected by centrifugation (30 min, 4° C., 48,500×g), was taken up in 200 μl of buffer B (50 mM phosphate buffer, pH 7.5 and 150 mM NaCl).
The results are illustrated by FIG. 10B, which represents the O2 uptake, in the presence of NADH, of E. coli ANN0222 membranes prepared from the reference strain (control) and from the strain expressing Agtundh2.
To determine the catalytic efficiency of Agtundh2 expressed in E. coli, the specific activity was estimated from the amounts determined by Western blotting.
On the basis of the relative intensities of the signals obtained for the purified Agtundh2 protein and for the membrane fractions, the amount of Agtundh2 protein in the experiments illustrated by FIG. 10B was estimated at 0.6 μg protein. The maximum O2 uptakes under these conditions are thus estimated at 13.2/0.6=22 nmol O2 min^−1·μg^−1 protein, i.e. 44 nmol NADH min^−1·μg^−1 protein.

[6] = Activity of wild-type and E201Q modified protein with NADH and NADPH; type: biochemical; conditions: FIG. 12
Method: The affinity of the modified protein for NADH and NADPH was determined.
The results are illustrated in FIG. 12.

[7] = system: E. coli strain ANN.0222; test: Complementation-growth test of NDH-deficient E. coli; type: cell-based; conditions: M9 + mannitol
Method: The functionality of the Agtundh2 protein in vivo in a heterologous host was tested by determining its capacity to restore the growth of a mutant E. coli strain, ANN.0222, deficient in NDH-1 and in NDH-2. This strain grows normally on LB medium, but is incapable of growing on minimum medium M9 supplemented with mannitol as the sole carbon source.
The E. coli strain ANN.0222 was chemically transformed (CaCl2) with the plasmid pSDN2Ag6H. The transformants were selected on LB agar medium (supplemented with 1% tryptone, 0.5% of yeast extract and 0.5% NaCl, pH 7) containing ampicillin (100 μg/ml). The transformants and the strain of origin were cultured until the middle of the exponential phase at 37° C. in liquid LB medium containing ampicillin (100 μg/ml). The cells were rinsed with sterile M9 medium, supplemented with mannitol as the sole carbon source (1× M9 salts, 2×10^−3 M MgSO4, 10^−4 M CaCl2, 0.4% mannitol). The cells were then diluted in M9 medium/mannitol and inoculated on a solid M9/mannitol/agar medium containing ampicillin and various concentrations of IPTG. The Petri dishes were incubated at 37° C. for 2 days. As a control, the same cells were inoculated in parallel on dishes containing LB agar medium containing ampicillin and various concentrations of IPTG, and then incubated at 37° C. overnight. […]

Row | Molecule | IC50 [1] [µM] | Km ([2]; read-out: Km for NADH) [µM] | Km ([2]; read-out: Km for NADPH) [µM] | maximum activity (Vmax) ([2]; purified enzyme plus E. coli ANN0222 membranes, pH 7.5) | electron transport, NADH as donor ([3]; 1.5 μg purified NDH-II added, NADH 200 μM, without enzyme 21) | electron transport, NADPH as donor ([3]; 1.5 μg purified NDH-II added, NADPH 2 mM, without enzyme 20) | stimulation factor of electron transport, NADH ([3]; NADH to thylakoid plastoquinones) | stimulation factor of electron transport, NADPH ([3]; NADPH to thylakoid plastoquinones) | increase in chlorophyll fluorescence (plastoquinone reduction) versus natural enzyme alone [4] | specific activity as NADH ([5]; Agtundh2 expressed in E. coli membranes) | maximum O2 uptake (specific activity) ([5]; Agtundh2 expressed in E. coli membranes, protein amount estimated by Western blotting at 0.6 μg) | O2 uptake of membranes on addition of NADH ([5]; strain transformed with pSDN2Ag6H, 0.1 mM IPTG, control strain none detected) | activity with 200 μM NADH compared with 200 μM NADPH [6] | growth on minimal medium ([7]; absence of IPTG) | growth on minimal medium ([7]; induction with 0.1 mM IPTG)
1 | c1ccc2c(c1)[I+]c1ccccc1-2 [DPI, diphenylene iodonium] | 10 |  |  |  |  |  |  |  |  |  |  |  |  |  | 
2 | Agrobacterium NDH-II: type II NAD(P)H dehydrogenase from Agrobacterium tumefaciens, SEQ ID NO: 2, purified with 6His tag (protein, listed as Agrobacterium tumefaciens, 6His tag) MQEHHVVVVGGGFGGLQLVHGLEGAPVRITLIDRRNHHLFQPLLYQVATTALATSEIAWPIRHLYRDRKEVTTLLAEVTGVDRAARTVQLNSGQVIGFDTLVLATGARHAYFGHDEWERSAPGLKTLEDATTIRRRLLLAFERAELATSEEERQALLTFVIIGAGPTGVEMAGMIAELAHRALPAEFRNVDTRKTRVLLVEAGPRVLPVFTEDLSTYAKEALEKLGVEVLLGTPVTACTDEGVTVGETYYPCRTVVWAAGVQASPAAKWLNAAGDRAGRVIVGPQLHLEDDADIFVIGDTAAVNQENGKPVPGIAPAAKQQGAYVAKVIKARLEGKPIPAPFRYSHQGNLATIGKRAAVIDFGRFKLKGVLAWWIWGLAHIYFLIGTRSRLAVAWSWLWIYLSGQHSARLITQKETLKDEA |  | 10 | 50 | 5 μmol O2·min^−1·mg^−1 protein | 67 nmol·min^−1·mg^−1 chlorophyll | 45 nmol·min^−1·mg^−1 chlorophyll | approximately 3 | approximately 2 | more rapid and more intense | 44 nmol NADH min^−1·μg^−1 protein | 22 nmol O2 min^−1·μg^−1 protein | considerable O2 uptake | clearly greater activity with 200 μM NADH | partial complementation | restored
